T1: mouse FcγRI (mouse, UniProt P26151 25-297)
T1 construct: bought; also called mFcgRI; mFcgR 1
T1 sequence (looked up): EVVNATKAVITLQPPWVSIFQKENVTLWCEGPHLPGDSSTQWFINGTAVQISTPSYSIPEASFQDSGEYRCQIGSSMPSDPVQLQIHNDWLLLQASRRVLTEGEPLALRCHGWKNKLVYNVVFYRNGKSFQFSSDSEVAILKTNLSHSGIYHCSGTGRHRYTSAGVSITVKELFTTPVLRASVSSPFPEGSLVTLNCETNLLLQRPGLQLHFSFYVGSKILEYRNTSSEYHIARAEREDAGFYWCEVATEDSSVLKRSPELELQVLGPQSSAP

T2: mouse FcγRIII (mouse, UniProt P08508 31-215)
T2 construct: bought; also called mFcgRIII; mFcgR III
T2 sequence (looked up): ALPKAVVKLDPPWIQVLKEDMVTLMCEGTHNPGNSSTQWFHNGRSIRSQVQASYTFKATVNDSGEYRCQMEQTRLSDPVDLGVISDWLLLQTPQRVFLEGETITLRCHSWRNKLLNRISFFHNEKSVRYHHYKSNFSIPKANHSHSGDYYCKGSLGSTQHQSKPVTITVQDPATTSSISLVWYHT

T3: mouse FcγRIIb (mouse, UniProt P08101 30-207, limits assumed)
T3 construct: bought; also called mFcgRIIb; mFcgR IIb
T3 sequence (looked up): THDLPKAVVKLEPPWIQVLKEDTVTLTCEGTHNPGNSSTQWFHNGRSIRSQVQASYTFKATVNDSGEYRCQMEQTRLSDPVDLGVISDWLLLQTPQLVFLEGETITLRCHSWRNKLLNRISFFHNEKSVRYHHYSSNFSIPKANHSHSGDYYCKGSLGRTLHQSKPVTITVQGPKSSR

T4: mouse FcγRIV (mouse, UniProt A0A0B4J1G0 21-203)
T4 construct: bought; also called mFcgRIV; mFcgR IV; the vendor's purification tag not given
T4 sequence: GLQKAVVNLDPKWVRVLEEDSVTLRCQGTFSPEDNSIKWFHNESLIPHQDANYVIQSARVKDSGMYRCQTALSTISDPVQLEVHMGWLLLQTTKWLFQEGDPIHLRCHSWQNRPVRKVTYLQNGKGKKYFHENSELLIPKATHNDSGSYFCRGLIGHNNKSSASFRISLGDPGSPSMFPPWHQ


What was measured:
Assay in all cases: SPR, antibody captured by Protein L, mouse FcγR as analyte, pH 7.4, 25 C
[1] = molecular target: T1, mouse FcγRI
Procedure: (§1) Binding activity between the antibodies and mouse FcγRI, FcγRII, FcγRIII and FcγRIV (R&D Systems, Sino Biological) (hereinafter referred to as mouse FcγRs) was evaluated using the BIACORE™ T100 or T200 surface plasmon resonance system (GE Healthcare). The antibodies being tested were captured by Protein L (ACTIGEN® protein (Alltech)) that was immobilized in suitable amounts on the CM4 Sensor Chip (GE Healthcare) by amine coupling. Next, the diluted mouse FcγRs and a running buffer used as a blank were injected to allow interaction with the antibody captured on the sensor chip. A buffer consisting of 20 mmol/L N-(2-acetamido)-2-aminoethanesulfonic acid (ACES), 150 mmol/L NaCl and 0.05% (w/v) polysorbate 20 (Tween 20®) (pH 7.4) was used for the running buffer, and this buffer was also used to dilute the mouse FcγRs. 10 mmol/L glycine-HCl (pH 1.5) was used to regenerate the sensor chip. All measurements were carried out at 25° C.
(§2) Binding activity to mouse FcγRs can be represented by the relative binding activity to mouse FcγRs. Antibody was captured by Protein L, and the amount of change in a sensorgram before and after the antibody was captured was defined as X1. Next, mouse FcγRs were allowed to interact with the antibody, and the value obtained by subtracting binding activity of mouse FcγRs represented as the amount of change in a sensorgram before and after allowing the running buffer to interact with antibody captured by Protein L (AA2) from the value obtained by multiplying by 1500 the value obtained by dividing the binding activity of mouse FcγRs represented as the amount of change in a sensorgram before and after that interaction (AA1) by the captured amount (X) of each antibody, was divided by the captured amount of each antibody (X) followed by multiplying by 1500 to obtain the binding activity of the mouse FcγRs (Y) (Equation 1).

[2] = molecular target: T2, mouse FcγRIII
Procedure: as §1, §2

[3] = molecular target: T3, mouse FcγRIIb
Procedure: as §1, §2

[4] = molecular target: T4, mouse FcγRIV
Procedure: as §1, §2

BINDING AMOUNT (RU) [1] [RU] | BINDING AMOUNT (RU) [2] [RU] | BINDING AMOUNT (RU) [3] [RU] | BINDING AMOUNT (RU) [4] [RU] | Binder
-3.1 | -8.4 | -3 | -3.8 | antibody with mPM1H-mIgG1-mF39 heavy chain (antibody, P235K/S239K/T252Y/T256E/H433K; also called mPM1-mIgG1-mF39; copies: 2 + 2) heavy: DVQLQESGPVLVKPSQSLSLTCTVTGYSITSDHAWSWIRQFPGNKLEWMGYISYSGITTYNPSLKSRISITRDTSKNQFFLQLNSVTTGDTSTYYCARSLARTTAMDYWGQGTSVTVSSAKTTPPSVYPLAPGSAAQTNSMVTLGCLVKGYFPEPVTVTWNSGSLSSGVHTFPAVLQSDLYTLSSSVTVPSSTWPSETVTCNVAHPASSTKVDKKIVPRDCGCKPCICTVKEVSKVFIFPPKPKDVLYITLEPKVTCVVVDISKDDPEVQFSWFVDDVEVHTAQTQPREEQFNSTFRSVSELPIMHQDWLNGKEFKCRVNSAAFPAPIEKTISKTKGRPKAPQVYTIPPPKEQMAKDKVSLTCMITDFFPEDITVEWQWNGQPAENYKNTQPIMDTDGSYFVYSKLNVQKSNWEAGNTFTCSVLHEGLKNHHTEKSLSHSPGK light: not shown
-2 | 403 | 161 | -4.1 | antibody with mPM1H-mIgG1-mF38 heavy chain (antibody, T252Y/T256E/N434W; also called mPM1-mIgG1-mF38; copies: 2 + 2) heavy: DVQLQESGPVLVKPSQSLSLTCTVTGYSITSDHAWSWIRQFPGNKLEWMGYISYSGITTYNPSLKSRISITRDTSKNQFFLQLNSVTTGDTSTYYCARSLARTTAMDYWGQGTSVTVSSAKTTPPSVYPLAPGSAAQTNSMVTLGCLVKGYFPEPVTVTWNSGSLSSGVHTFPAVLQSDLYTLSSSVTVPSSTWPSETVTCNVAHPASSTKVDKKIVPRDCGCKPCICTVPEVSSVFIFPPKPKDVLYITLEPKVTCVVVDISKDDPEVQFSWFVDDVEVHTAQTQPREEQFNSTFRSVSELPIMHQDWLNGKEFKCRVNSAAFPAPIEKTISKTKGRPKAPQVYTIPPPKEQMAKDKVSLTCMITDFFPEDITVEWQWNGQPAENYKNTQPIMDTDGSYFVYSKLNVQKSNWEAGNTFTCSVLHEGLHWHHTEKSLSHSPGK light: not shown
-3.7 | 447 | 184 | -8 | antibody with mPM1H-mIgG1-mF14 heavy chain (antibody, T252Y/T256E/H433K; also called mPM1-mIgG1-mF14; copies: 2 + 2) heavy: DVQLQESGPVLVKPSQSLSLTCTVTGYSITSDHAWSWIRQFPGNKLEWMGYISYSGITTYNPSLKSRISITRDTSKNQFFLQLNSVTTGDTSTYYCARSLARTTAMDYWGQGTSVTVSSAKTTPPSVYPLAPGSAAQTNSMVTLGCLVKGYFPEPVTVTWNSGSLSSGVHTFPAVLQSDLYTLSSSVTVPSSTWPSETVTCNVAHPASSTKVDKKIVPRDCGCKPCICTVPEVSSVFIFPPKPKDVLYITLEPKVTCVVVDISKDDPEVQFSWFVDDVEVHTAQTQPREEQFNSTFRSVSELPIMHQDWLNGKEFKCRVNSAAFPAPIEKTISKTKGRPKAPQVYTIPPPKEQMAKDKVSLTCMITDFFPEDITVEWQWNGQPAENYKNTQPIMDTDGSYFVYSKLNVQKSNWEAGNTFTCSVLHEGLKNHHTEKSLSHSPGK light: not shown
